# Assay results from publication PMC7094404 (Archives of Biochemistry and Biophysics, 2008).
# Molecular target: the molecule itself
# Experiment: AUC
protein,measurement,value
"SARS-CoV main protease, full-length wild type, C-terminal His6 (enzyme) SGFRKMAFPSGKVEGCMVQVTCGTTTLNGLWLDDTVYCPRHVICTAEDMLNPNYEDLLIRKSNHSFLVQAGNVQLRVIGHSMQNCLLRLKVDTSNPKTPKYKFVRIQPGQTFSVLACYNGSPSGVYQCAMRPNHTIKGSFLNGSCGSVGFNIDYDCVSFCYMHHMELPTGVHAGTDLEGKFYGPFVDRQTAQAAGTDTTITLNVLAWLYAAVINGDRWFLNRFTTTLNDFNLVAMKYNYEPLTQDHVDILGPLSAQTGIAVLDMCAALKELLQNGMNGRTILGSTILEDEFTPFDVVRQCSGVTFQ",Kd,80 ± 5 nM
same,koff,0.01 ± 0.001 s⁻¹
